Numbering of substitutions follows the chain as printed. Numbers in names are those of the source. One block for each binder: values may come before it.
Columns and labels:
[1] = biological target: T1, human a-Mesothelin (Acro Biosystems; MSN_H5223) (human, UniProt Q13421 296-580, limits assumed); assay: SPR, mesothelin immobilised, scFv analyte, 1:1 fit
T1 construct: Bought protein immobilised on the SPR chip; Printed as 'a-Mesothelin' but used as the antigen for the anti-MSLN scFvs; also called Human MSLN; MSLN
T1 sequence (Q13421 other isoform, or with tags, fused parts or gaps limits assumed): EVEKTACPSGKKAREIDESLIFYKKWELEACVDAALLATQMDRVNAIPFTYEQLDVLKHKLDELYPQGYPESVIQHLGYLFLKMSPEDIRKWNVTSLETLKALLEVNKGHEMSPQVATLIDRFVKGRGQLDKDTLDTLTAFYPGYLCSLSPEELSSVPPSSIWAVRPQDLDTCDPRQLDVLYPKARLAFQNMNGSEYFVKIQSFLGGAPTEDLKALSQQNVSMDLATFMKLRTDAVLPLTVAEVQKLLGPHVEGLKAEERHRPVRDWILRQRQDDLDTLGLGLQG
Experimental: The mutation variants were then injected at concentrations of 10 nM, 2 nM and 0.4 nM over the ligand-immobilized and reference spots. The wild type variants were used as a control, while an empty spot was used as reference.
After each cycle with analyte, the surface was regenerated with a 3M MgCl₂ solution, thereby allowing the next analyte cycle to have only free ligand available. Binding affinity KD was globally calculated by the Bruker SPR software based on the binding association (kₒₙ) and dissociation (Koff) rate, by fitting a 1:1 Langmuir model to the curves obtained by the cycles with the three different concentrations of the analyte.

[2] = biological target: pre-existing anti-drug antibodies (ADA) present in human sera; assay: pre-existing ADA ELISA, scFv coated, human sera unspiked vs spiked

- Kd [1]: 1.6 nM
- n-fold to wt [1]: 0.9 fold
- Mean No of serum samples >30% inhibition (30% CCP) with SCP (serum samples) [2]: 0
- No of serum samples >30% inhibition (30% CCP) without SCP (serum samples) [2]: 0
B1: PRO3320 (scFv 54-21-H03-sc01_(L12A, T101S, L144K, T146Q)) (scFv)
scFv: DIQMTQSPSSLSASVGDRVTITCQASESIYSSLAWYQQKPGKAPKLLIYLASTLASGVPSRFSGSGSGTDFTLTISSLQPEDFATYYCQSTDYTTSTHRNSFGTGTKVTVLGGGGGSGGGGSGGGGSGGGGSEVQLVESGGGAVQPGGSLRLSCAASGFSFSTTYYMCWVRQAPGKGLEWIGCTNTASSVRTYYATWAKGRFTISRDNSKNTVYLQMNSLRAEDSAVYYCARDMGFADYALNLWGQGTKVQVSS
notes: PRO1922 variant; VH substitutions, AHo numbering; also called PRO1922 L12A-T101S-L144K-T146Q

- Kd [1]: 2.5 nM
- n-fold to wt [1]: 1.4 fold
- Mean No of serum samples >30% inhibition (30% CCP) with SCP (serum samples) [2]: 0
- No of serum samples >30% inhibition (30% CCP) without SCP (serum samples) [2]: 0
B2: PRO3348 (scFv 54-21-H03-sc01_(T101K, T146D)) (scFv)
scFv: B1 scFv with A143L, S225K, K249L, Q251D
notes: PRO1922 variant; VH substitutions, AHo numbering; also called PRO1922 T101K-T146D

- Kd [1]: 1.5 nM
- n-fold to wt [1]: 0.8 fold
- Mean No of serum samples >30% inhibition (30% CCP) with SCP (serum samples) [2]: 0
- No of serum samples >30% inhibition (30% CCP) without SCP (serum samples) [2]: 0
B3: PRO3346 (scFv 54-21-H03-sc01_(T101S T146K)) (scFv)
scFv: B1 scFv with A143L, K249L, Q251K
notes: PRO1922 variant; VH substitutions, AHo numbering; also called PRO1922 T101S-T146K

- Kd [1]: 1.5 nM
- n-fold to wt [1]: 0.8 fold
- Mean No of serum samples >30% inhibition (30% CCP) with SCP (serum samples) [2]: 0
- No of serum samples >30% inhibition (30% CCP) without SCP (serum samples) [2]: 0
B4: PRO3345 (scFv 54-21-H03-sc01_(T101N, T146Q)) (scFv)
scFv: B1 scFv with A143L, S225N, K249L
notes: PRO1922 variant; VH substitutions, AHo numbering; also called PRO1922 T101N-T146Q

- Kd [1]: 1.6 nM
- n-fold to wt [1]: 0.9 fold
- Mean No of serum samples >30% inhibition (30% CCP) with SCP (serum samples) [2]: 1
- No of serum samples >30% inhibition (30% CCP) without SCP (serum samples) [2]: 2
B5: PRO3329 (scFv 54-21-H03-sc01_(T101Q)) (scFv)
scFv: B1 scFv with A143L, S225Q, K249L, Q251T
notes: PRO1922 variant; VH substitution, AHo numbering; also called PRO1922 T101Q

- Kd [1]: 1.7 nM
- n-fold to wt [1]: 0.9 fold
- Mean No of serum samples >30% inhibition (30% CCP) with SCP (serum samples) [2]: 3
- No of serum samples >30% inhibition (30% CCP) without SCP (serum samples) [2]: 3
B6: PRO3347 (scFv 54-21-H03-sc01_(T101S, T146S)) (scFv)
scFv: B1 scFv with A143L, K249L, Q251S
notes: PRO1922 variant; VH substitutions, AHo numbering; also called PRO1922 T101S-T146S

- Kd [1]: 1.8 nM
- n-fold to wt [1]: 1 fold
- Mean No of serum samples >30% inhibition (30% CCP) with SCP (serum samples) [2]: 1
- No of serum samples >30% inhibition (30% CCP) without SCP (serum samples) [2]: 4
B7: PRO3325 (scFv 54-21-H03-sc01_(T101S, T146R)) (scFv)
scFv: B1 scFv with A143L, K249L, Q251R
notes: PRO1922 variant; VH substitutions, AHo numbering; also called PRO1922 T101S-T146R

- Kd [1]: 1.9 nM
- n-fold to wt [1]: 1.1 fold
- Mean No of serum samples >30% inhibition (30% CCP) with SCP (serum samples) [2]: 1
- No of serum samples >30% inhibition (30% CCP) without SCP (serum samples) [2]: 2
B8: PRO3324 (scFv 54-21-H03-sc01_(T101R, T146Q)) (scFv)
scFv: B1 scFv with A143L, S225R, K249L
notes: PRO1922 variant; VH substitutions, AHo numbering; also called PRO1922 T101R-T146Q

- Kd [1]: 1.7 nM
- n-fold to wt [1]: 0.9 fold
- Mean No of serum samples >30% inhibition (30% CCP) with SCP (serum samples) [2]: 0
- No of serum samples >30% inhibition (30% CCP) without SCP (serum samples) [2]: 0
B9: PRO3321 (scFv 54-21-H03-sc01_(L12R, T101S, L144A, T146Q)) (scFv)
scFv: B1 scFv with A143R, K249A
notes: PRO1922 variant; VH substitutions, AHo numbering; also called PRO1922 L12R-T101S-L144A-T146Q

- Kd [1]: 2.1 nM
- n-fold to wt [1]: 1.2 fold
- Mean No of serum samples >30% inhibition (30% CCP) with SCP (serum samples) [2]: 0
- No of serum samples >30% inhibition (30% CCP) without SCP (serum samples) [2]: 0
B10: PRO3322 (scFv 54-21-H03-sc01_(L12R, T101R, L144A, T146Q)) (scFv)
scFv: B1 scFv with A143R, S225R, K249A
notes: PRO1922 variant; VH substitutions, AHo numbering; also called PRO1922 L12R-T101R-L144A-T146Q

- Kd [1]: 1.6 nM
- n-fold to wt [1]: 0.9 fold
- Mean No of serum samples >30% inhibition (30% CCP) with SCP (serum samples) [2]: 0
- No of serum samples >30% inhibition (30% CCP) without SCP (serum samples) [2]: 0
B11: PRO3344 (scFv 54-21-H03-sc01_(T101K, T146Q)) (scFv)
scFv: B1 scFv with A143L, S225K, K249L
notes: PRO1922 variant; VH substitutions, AHo numbering; also called PRO1922 T101K-T146Q

- Kd [1]: 1.9 nM
- n-fold to wt [1]: 1.1 fold
- Mean No of serum samples >30% inhibition (30% CCP) with SCP (serum samples) [2]: 0
- No of serum samples >30% inhibition (30% CCP) without SCP (serum samples) [2]: 0
B12: PRO3349 (scFv 54-21-H03-sc01_(T101R, T146E)) (scFv)
scFv: B1 scFv with A143L, S225R, K249L, Q251E
notes: PRO1922 variant; VH substitutions, AHo numbering; also called PRO1922 T101R-T146E

- Kd [1]: 1.7 nM
- n-fold to wt [1]: 0.9 fold
- Mean No of serum samples >30% inhibition (30% CCP) with SCP (serum samples) [2]: 0
- No of serum samples >30% inhibition (30% CCP) without SCP (serum samples) [2]: 0
B13: PRO3323 (scFv 54-21-H03-sc01_(L12A, T101Q, L144A, T146Q)) (scFv)
scFv: B1 scFv with S225Q, K249A
notes: PRO1922 variant; VH substitutions, AHo numbering; also called PRO1922 L12A-T101Q-L144A-T146Q

- Kd [1]: 1.8 nM
- n-fold to wt [1]: 1 fold
- Mean No of serum samples >30% inhibition (30% CCP) with SCP (serum samples) [2]: 0
- No of serum samples >30% inhibition (30% CCP) without SCP (serum samples) [2]: 0
B14: PRO3326 (scFv 54-21-H03-sc01_(T101Q, T146Q)) (scFv)
scFv: B1 scFv with A143L, S225Q, K249L
notes: PRO1922 variant; VH substitutions, AHo numbering; also called PRO1922 T101Q-T146Q

Source: patent US20250382363A1 (NUMAB THERAPEUTICS, published 2025)
